Experimental data as given in article PMC12394548 (Nature Communications, 2025).

Assays:
Details in all cases: both partners purified
[1] = molecular target: T1, valosin-containing protein (VCP)/p97 (UniProt P55072 1-806, terbium chelate (CoraFluor), non-site-selective labelling, DOL 0.33, in the TR-FRET assays only); experiment: FRET or BRET; TR-FRET displacement assay: 10 nM BODIPY-VCPIP1 WT pre-incubated with 10 nM Tb-VCP, serial dilution of unlabelled VCPIP1 WT or p47; TR-FRET buffer, room temperature
T1 construct: VCP/p97, full length; One molecule for the unlabelled protein (cryo-EM, DUB assay) and the Tb-labelled protein (TR-FRET); Hexamer seen by cryo-EM; also called Tb-VCP; terbium-chelate labeled VCP; source: co-expressed with VCPIP1 for cryo-EM data set 1 (ion exchange omitted)
T1 sequence (P55072 whole entry): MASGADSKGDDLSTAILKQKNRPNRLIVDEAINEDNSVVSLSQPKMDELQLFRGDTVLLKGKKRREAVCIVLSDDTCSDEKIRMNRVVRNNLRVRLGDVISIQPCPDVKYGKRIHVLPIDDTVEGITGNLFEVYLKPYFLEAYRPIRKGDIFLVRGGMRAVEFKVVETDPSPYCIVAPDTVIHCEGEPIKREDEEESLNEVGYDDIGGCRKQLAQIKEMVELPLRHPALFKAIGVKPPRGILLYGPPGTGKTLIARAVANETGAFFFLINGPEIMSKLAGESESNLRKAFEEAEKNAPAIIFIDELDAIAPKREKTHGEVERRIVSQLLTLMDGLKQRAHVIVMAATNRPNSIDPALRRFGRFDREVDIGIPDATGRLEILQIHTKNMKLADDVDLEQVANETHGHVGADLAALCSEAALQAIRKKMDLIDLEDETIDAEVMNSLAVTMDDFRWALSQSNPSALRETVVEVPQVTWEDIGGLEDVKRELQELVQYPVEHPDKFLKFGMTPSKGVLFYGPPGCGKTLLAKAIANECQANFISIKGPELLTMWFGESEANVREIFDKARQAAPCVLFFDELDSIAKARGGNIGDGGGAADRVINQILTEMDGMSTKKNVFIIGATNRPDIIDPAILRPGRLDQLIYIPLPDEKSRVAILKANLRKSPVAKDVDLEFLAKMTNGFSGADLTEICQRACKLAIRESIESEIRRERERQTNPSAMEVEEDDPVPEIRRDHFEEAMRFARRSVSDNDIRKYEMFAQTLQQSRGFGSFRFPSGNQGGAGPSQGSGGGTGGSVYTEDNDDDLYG

[2] = molecular target: T1, valosin-containing protein (VCP)/p97; experiment: FRET or BRET; TR-FRET binding assay: Tb-VCP with a serial dilution of BODIPY-labelled VCPIP1 construct; 25 mM HEPES pH 7.4, 150 mM NaCl, 0.1% BSA, 0.05% Tween-20; 1 h at room temperature; apparent KD
[3] = molecular target: T1, valosin-containing protein (VCP)/p97; experiment: FRET or BRET; TR-FRET binding assay of BODIPY-VCPIP1 WT on Tb-VCP with 1 uM ADP; apparent KD
[4] = molecular target: T1, valosin-containing protein (VCP)/p97; experiment: FRET or BRET; TR-FRET binding assay of BODIPY-VCPIP1 WT on Tb-VCP with 1 uM AMP; apparent KD
[5] = molecular target: T1, valosin-containing protein (VCP)/p97; experiment: FRET or BRET; TR-FRET binding assay of BODIPY-VCPIP1 WT on Tb-VCP with 1 uM ATP; apparent KD
[6] = molecular target: T1, valosin-containing protein (VCP)/p97; experiment: FRET or BRET; TR-FRET binding assay of BODIPY-VCPIP1 WT on Tb-VCP with 1 uM ATPγS; apparent KD
[7] = molecular target: T1, valosin-containing protein (VCP)/p97; experiment: FRET or BRET; TR-FRET binding assay of BODIPY-VCPIP1 WT on Tb-VCP, buffer control (no nucleotide added); apparent KD; another protein batch than a3

B1: p47 (natural protein)
chain: MAAERQEALREFVAVTGAEEDRARFFLESAGWDLQIALASFYEDGGDEDIVTISQATPSSVSRGTAPSDNRVTSFRDLIHDQDEDEEEEEGQRFYAGGSERSGQQIVGPPRKKSPNELVDDLFKGAKEHGAVAVERVTKSPGETSKPRPFAGGGYRLGAAPEEESAYVAGEKRQHSSQDVHVVLKLWKSGFSLDNGELRSYQDPSNAQFLESIRRGEVPAELRRLAHGGQVNLDMEDHRDEDFVKPKGAFKAFTGEGQKLGSTAPQVLSTSSPAQQAENEAKASSSILIDESEPTTNIQIRLADGGRLVQKFNHSHRISDIRLFIVDARPAMAATSFILMTTFPNKELADESQTLKEANLLNAVIVQRLT
notes: p47 cloned into pNIC-Bio2 with an N-terminal His-6-TEV tag; printed residue numbers reach V366 (UBX domain); Used unlabelled in the displacement assay and in cryo-EM; also called adapter protein p47; source: E. coli LOBSTR, purified (Ni resin, ion exchange, SEC)
IC50 [1]: 20.4 nM

B2: VCPIP1^ΔVCPID (aa Δ589-666) (enzyme, UniProt Q96JH7 1-1222, looked up)
chain: MSQPPPPPPPLPPPPPPPEAPQTPSSLASAAASGGLLKRRDRRILSGSCPDPKCQARLFFPASGSVSIECTECGQRHEQQQLLGVEEVTDPDVVLHNLLRNALLGVTGAPKKNTELVKVMGLSNYHCKLLSPILARYGMDKQTGRAKLLRDMNQGELFDCALLGDRAFLIEPEHVNTVGYGKDRSGSLLYLHDTLEDIKRANKSQECLIPVHVDGDGHCLVHAVSRALVGRELFWHALRENLKQHFQQHLARYQALFHDFIDAAEWEDIINECDPLFVPPEGVPLGLRNIHIFGLANVLHRPIILLDSLSGMRSSGDYSATFLPGLIPAEKCTGKDGHLNKPICIAWSSSGRNHYIPLVGIKGAALPKLPMNLLPKAWGVPQDLIKKYIKLEEDGGCVIGGDRSLQDKYLLRLVAAMEEVFMDKHGIHPSLVADVHQYFYRRTGVIGVQPEEVTAAAKKAVMDNRLHKCLLCGALSELHVPPEWLAPGGKLYNLAKSTHGQLRTDKNYSFPLNNLVCSYDSVKDVLVPDYGMSNLTACNWCHGTSVRKVRGDGSIVYLDGDRTNSRSTGGKCGCGFKHFWDGKEYDNLNIDGAHAQRVGDVQGQESESQLPTKIILTGQKTKTLHKEELNMSKTERTIQQNITEQASVMQKRKTEKLKQEQKGQPRTVSPSTIRDGPSSAPATPTKAPYSPTTSKEKKIRITTNDGRQSMVTLKSSTTFFELQESIAREFNIPPYLQCIRYGFPPKELMPPQAGMEKEPVPLQHGDRITIEILKSKAEGGQSAAAHSAHTVKQEDIAVTGKLSSKELQEQAEKEMYSLCLLATLMGEDVWSYAKGLPHMFQQGGVFYSIMKKTMGMADGKHCTFPHLPGKTFVYNASEDRLELCVDAAGHFPIGPDVEDLVKEAVSQVRAEATTRSRESSPSHGLLKLGSGGVVKKKSEQLHNVTAFQGKGHSLGTASGNPHLDPRARETSVVRKHNTGTDFSNSSTKTEPSVFTASSSNSELIRIAPGVVTMRDGRQLDPDLVEAQRKKLQEMVSSIQASMDRHLRDQSTEQSPSDLPQRKTEVVSSSAKSGSLQTGLPESFPLTGGTENLNTETTDGCVADALGAAFATRSKAQRGNSVEELEEMDSQDAEMTNTTEPMDHS
modifications: BODIPY, non-site-selective labelling, DOL 0.62, in the TR-FRET binding assay
notes: VCPIP1 full length with the VCPID (aa 589-666) deleted; made from the Strep-VCPIP1 plasmid by PCR; also called VCPID domain truncation
Kd [2]: 67.9 nM

B3: valosin contain protein p97/p47 interacting protein 1 (VCPIP1), wild type (enzyme, UniProt Q96JH7 1-1222, looked up)
chain: MSQPPPPPPPLPPPPPPPEAPQTPSSLASAAASGGLLKRRDRRILSGSCPDPKCQARLFFPASGSVSIECTECGQRHEQQQLLGVEEVTDPDVVLHNLLRNALLGVTGAPKKNTELVKVMGLSNYHCKLLSPILARYGMDKQTGRAKLLRDMNQGELFDCALLGDRAFLIEPEHVNTVGYGKDRSGSLLYLHDTLEDIKRANKSQECLIPVHVDGDGHCLVHAVSRALVGRELFWHALRENLKQHFQQHLARYQALFHDFIDAAEWEDIINECDPLFVPPEGVPLGLRNIHIFGLANVLHRPIILLDSLSGMRSSGDYSATFLPGLIPAEKCTGKDGHLNKPICIAWSSSGRNHYIPLVGIKGAALPKLPMNLLPKAWGVPQDLIKKYIKLEEDGGCVIGGDRSLQDKYLLRLVAAMEEVFMDKHGIHPSLVADVHQYFYRRTGVIGVQPEEVTAAAKKAVMDNRLHKCLLCGALSELHVPPEWLAPGGKLYNLAKSTHGQLRTDKNYSFPLNNLVCSYDSVKDVLVPDYGMSNLTACNWCHGTSVRKVRGDGSIVYLDGDRTNSRSTGGKCGCGFKHFWDGKEYDNLPEAFPITLEWGGRVVRETVYWFQYESDSSLNSNVYDVAMKLVTKHFPGEFGSEILVQKVVHTILHQTAKKNPDDYTPVNIDGAHAQRVGDVQGQESESQLPTKIILTGQKTKTLHKEELNMSKTERTIQQNITEQASVMQKRKTEKLKQEQKGQPRTVSPSTIRDGPSSAPATPTKAPYSPTTSKEKKIRITTNDGRQSMVTLKSSTTFFELQESIAREFNIPPYLQCIRYGFPPKELMPPQAGMEKEPVPLQHGDRITIEILKSKAEGGQSAAAHSAHTVKQEDIAVTGKLSSKELQEQAEKEMYSLCLLATLMGEDVWSYAKGLPHMFQQGGVFYSIMKKTMGMADGKHCTFPHLPGKTFVYNASEDRLELCVDAAGHFPIGPDVEDLVKEAVSQVRAEATTRSRESSPSHGLLKLGSGGVVKKKSEQLHNVTAFQGKGHSLGTASGNPHLDPRARETSVVRKHNTGTDFSNSSTKTEPSVFTASSSNSELIRIAPGVVTMRDGRQLDPDLVEAQRKKLQEMVSSIQASMDRHLRDQSTEQSPSDLPQRKTEVVSSSAKSGSLQTGLPESFPLTGGTENLNTETTDGCVADALGAAFATRSKAQRGNSVEELEEMDSQDAEMTNTTEPMDHS
modifications: BODIPY, non-site-selective labelling, DOL 0.23, as the labelled partner of the TR-FRET assays; unlabelled in cryo-EM, as competitor in the displacement assay and in the DUB assay
notes: AlphaFold model AF-Q96JH7-F1-v4 used for model building; One molecule for labelled and unlabelled protein; also called VCPIP1^WT; VCIP135; source: co-expressed with VCP for cryo-EM data set 1 (ion exchange omitted)
Kd [3]: 67.6 nM
Kd [4]: 16.1 nM
Kd [5]: 68.3 nM
Kd [6]: 63.9 nM
Kd [7]: 16.5 nM
IC50 [1]: 74.5 nM
Kd [2]: 79.5 nM
